Sequences and labels used below:
B1: Lipid A palmitoyltransferase PagP, P37001 (parent)
chain: MNVSKYVAIFSFVFIQLISVGKVFANADEWMTTFRENIAQTWQQPEHYDLYIPAITWHARFAYDKEKTDRYNERPWGGGFGLSRWDEKGNWHGLYAMAFKDSWNKWEPIAGYGWESTWRPLADENFHLGLGFTAGVTARDNWNYIPLPVLLPLASVGYGPVTFQMTYIPGTYNNGNVYFAWMRFQF

The data set covers variants of B1. Conditions: Escherichia coli (strain K12), pH 8, 25 °C, Urea, CD, structure 1THQ, whole UniProt chain shown.
[1] abbreviates: Sodium phosphate 50 mM, reversible: Yes.
[2] abbreviates: sodium phosphate buffer, transition: 2, reversible: yes.

On to MNVSKYVAIFSFVFIQLISVGKVFANADEWMTTFRENIAQTWQQPEHYDLYIPAITWHARFAYDKEKTDRYNERPWGGGFGLSRWDEKGNWHGLYAMAFKDSWNKWEPIAGYGWESTWRPLADENFHLGLGFTAGVTARDNWNYIPLPVLLPLASVGYGPVTFQMTYIPGTYNNGNVAFAWMRFQF [Y178A], for which, under setting [1], the “ddG of mutation (higher = less stable)” value came out at 0.55 kcal/mol, the “denaturant midpoint (higher = more stable)” value (“denaturant midpoint” below) was 8.43 M and the unfolding free energy was found to be 13.8 kcal/mol. Moreover, under setting [2], the “ddG of mutation (higher = less stable)” value worked out at 5.95 kcal/mol, the “denaturant midpoint” value was 8.43 M and the unfolding free energy amounted to 8.43 kcal/mol.

With MNVSKYVAIFSFVFIQLISVGKVFANADEWMTTFRENIAQTWQQPEHYDLYIPAITWHARFAYDKEKTDRYNERPWGGGFGLSRWDEKGNWHGLYAMAFKDSWNKWEPIAGYGWESTWRPLADENFHLGLGFTAGVTARDNWNYIPLPVLLPLAAVGYGPVTFQMTYIPGTYNNGNVYFAWMRFQF [S155A], under setting [1], the “ddG of mutation (higher = less stable)” value was 1.27 kcal/mol, the “denaturant midpoint” value was 8 M and the unfolding free energy turned out to be 13.1 kcal/mol. In addition, under setting [2], the “ddG of mutation (higher = less stable)” value amounted to 6.38 kcal/mol, the “denaturant midpoint” value came out at 8 M and the unfolding free energy amounted to 8 kcal/mol.

With MNVSKYVAIFSFVFIQLISVGKVFANADEWMTTFRENIAQTWQQPEHYDLYIPAITWHARFAYDKEKTDRYNERPWGGGFGLSRWDEKGNWHGLYAMAFKDSWNKWEPIAGYGWESTWAPLADENFHLGLGFTAGVTARDNWNYIPLPVLLPLASVGYGPVTFQMTYIPGTYNNGNVYFAWMRFQF [R119A], under setting [1], the “ddG of mutation (higher = less stable)” value stood at 1.53 kcal/mol, the “denaturant midpoint” value came to 7.84 M and the unfolding free energy is 12.8 kcal/mol. In addition, under setting [2], the “ddG of mutation (higher = less stable)” value came to 6.54 kcal/mol, the “denaturant midpoint” value turned out to be 7.84 M and the unfolding free energy amounted to 7.84 kcal/mol.

As to MNVSKYVAIFSFVFIQLISVGKVFANADEWMTTFRENIAQTWQQPEHYDLYIPAITWHARFAYDKEKTDRYNERPWGGGFGLSRWDEKGNWHGLYAMAFKDSWNKWEPIAGGGWESTWRPLADENFHLGLGFTAGVTARDNWNYIPLPVLLPLASVGYGPVTFQMTYIPGTYNNGNVYFAWMRFQF [Y112G], under setting [2], the “ddG of mutation (higher = less stable)” value was determined as 6.14 kcal/mol, the “denaturant midpoint” value is 8.24 M and the unfolding free energy was determined as 8.24 kcal/mol.

For the variant MNVSKYVAIFSFVFIQLISVGKVFANADEWMTTFRENIAQTWQQPEHYDLYIPAITWHARFAYDKEKTDRYNERPWGGGFGLSRWDEKGNWHGLYAMAFKDSWNKWEPIAGYGWESTWRPLADENFHLGLGFTAGVTARDNWNYIPLPVLLPLASVGYGPVTFQMTYIPGTYNNGNVYFAWARFQF [M182A], under setting [1], the “ddG of mutation (higher = less stable)” value amounted to 0.77 kcal/mol, the “denaturant midpoint” value is 8.3 M and the unfolding free energy turned out to be 13.6 kcal/mol.

Take MNVSKYVAIFSFVFIQLISVGKVFANADEWMTTFRENIAQTAQQPEHYDLYIPAITWHARFAYDKEKTDRYNERPWGGGFGLSRWDEKGNWHGLYAMAFKDSWNKWEPIAGYGWESTWRPLADENFHLGLGFTAGVTARDNWNYIPLPVLLPLASVGYGPVTFQMTYIPGTYNNGNVYFAWMRFQF [W42A]: under setting [2], the “ddG of mutation (higher = less stable)” value was 6.21 kcal/mol, the “denaturant midpoint” value amounted to 8.17 M and the unfolding free energy was 8.17 kcal/mol.

In the case of MNVSKYVAIFSFVFIQLISVGKVFANADEWMTTFRENIAQTWQQPEHYDLYIPAITWHARFAYDKEKTDRYNERPWGGGFGLSRWDEKGNWHGLYAMAFKDSWNKWEPIAGYGWESTWRPLADENFHLGAGFTAGVTARDNWNYIPLPVLLPLASVGYGPVTFQMTYIPGTYNNGNVYFAWMRFQF [L130A], under setting [1], the “ddG of mutation (higher = less stable)” value amounted to 0.76 kcal/mol, the “denaturant midpoint” value was 8.3 M and the unfolding free energy was 13.6 kcal/mol. Moreover, under setting [2], the “ddG of mutation (higher = less stable)” value was found to be 6.08 kcal/mol, the “denaturant midpoint” value was 8.3 M and the unfolding free energy turned out to be 8.3 kcal/mol.

Turning to MNVSKYVAIFSFVFIQLISVGKVFANADEWMTTFRENIAQTWQQPEHYDLYIPAITWHARFAYDKEKTDRYNERPWGGGFGLSRWDEKGNWHGLYAMAFKDSWNKWEPIAGYGWESTWRPLADENFHLGLGFAAGVTARDNWNYIPLPVLLPLASVGYGPVTFQMTYIPGTYNNGNVYFAWMRFQF [T133A], under setting [1], the “ddG of mutation (higher = less stable)” value is 0.4 kcal/mol, the “denaturant midpoint” value was 8.52 M and the unfolding free energy stood at 14 kcal/mol. For the same variant, under setting [2], the “ddG of mutation (higher = less stable)” value was 5.86 kcal/mol, the “denaturant midpoint” value amounted to 8.52 M and the unfolding free energy is 8.52 kcal/mol.

Consider MNVSKYVAIFSFVFIQLISVGKVFANADEWMTTFRENIAQTWQQPEHYDLYIPAITWHARFAYDKEKTDRYNERPWGGGFGLSRWDEKGNWHGLYAMAFKDSWNKWEPIAGYGWESTWRPLADENFHLGLGFTAGVTARDNWNYIPLPVLLPLASVGYGPVAFQMTYIPGTYNNGNVYFAWMRFQF [T162A], for which, under setting [1], the “ddG of mutation (higher = less stable)” value came to 0.51 kcal/mol, the “denaturant midpoint” value amounted to 8.46 M and the unfolding free energy was determined as 13.9 kcal/mol. Also, under setting [2], the “ddG of mutation (higher = less stable)” value came to 5.92 kcal/mol, the “denaturant midpoint” value stood at 8.46 M and the unfolding free energy was 8.46 kcal/mol.

For MNVSKYVAIFSFVFIQLISVGKVFANADEWMTTFRENIAQTWQQPEHYDLYIPAITWHARFAYDKEKTDRYNERPWGGGFGLSRWDEKGNWHGLYAMAFKDSWNKWEPIAGYGWASTWRPLADENFHLGLGFTAGVTARDNWNYIPLPVLLPLASVGYGPVTFQMTYIPGTYNNGNVYFAWMRFQF [E115A], under setting [1], the “ddG of mutation (higher = less stable)” value was 0.66 kcal/mol, the “denaturant midpoint” value is 8.37 M and the unfolding free energy was found to be 13.7 kcal/mol. Moreover, under setting [2], the “ddG of mutation (higher = less stable)” value is 6.01 kcal/mol, the “denaturant midpoint” value was 8.37 M and the unfolding free energy was 8.37 kcal/mol.

In the case of MNVSKYVAIFSFVFIQLISVGKVFANADEWMTTFRENIAQTWQQPEHYDLYIPAITWHARFAYDKEKTDRYNERPWGGGFGLSRWDEKGNWHGLYAMAFKDSWNKWEPIAGYGWESTWRPLADENFHLGLGFTAGVTARDNWNYIPLPVLLPLASVGYGPVTFAMTYIPGTYNNGNVYFAWMRFQF [Q164A], under setting [1], the “ddG of mutation (higher = less stable)” value amounted to 0.97 kcal/mol, the “denaturant midpoint” value was found to be 8.18 M and the unfolding free energy is 13.4 kcal/mol. Moreover, under setting [2], the “ddG of mutation (higher = less stable)” value was determined as 6.2 kcal/mol, the “denaturant midpoint” value was 8.18 M and the unfolding free energy came to 8.18 kcal/mol.

Turning to MNVSKYVAIFSFVFIQLISVGKVFANADEWMTTFRENIAQTWQQPEHYDLYIPAITWHARFAYDKEKTDRYNERPWGGGFGLSRWDEKGNWHGLYAMAFKDSWNKWEPIAGYGWESTWRPLADENFHLGLGFTAGVTARDNWNYIPLPVLLPLASVGYGPVTFQMTYIPGTYNNGNVYFAWMRFAF [Q185A], under setting [1], the “ddG of mutation (higher = less stable)” value was -0.18 kcal/mol, the denaturant m value was 1.64 kcal/mol/M, the “denaturant midpoint” value worked out at 8.88 M and the unfolding free energy was 14.6 kcal/mol. Moreover, under setting [2], the “ddG of mutation (higher = less stable)” value worked out at 5.5 kcal/mol, the “denaturant midpoint” value was found to be 8.88 M and the unfolding free energy turned out to be 8.88 kcal/mol.

The record behind these values is FireProtDB (doi:10.1073/pnas.0911904107).
